The values below come from patent US20220289816A1, “IMMUNOTHERAPY WITH B*07 RESTRICTED PEPTIDES AND COMBINATION OF PEPTIDES AGAINST CANCERS AND RELATED METHODS” (Immatics Biotechnologies GmbH, priority 2018, published 2022).

The experiment deals with HLA-B*07 (Homo sapiens, UniProt P01889). Nature of the experiment: MHC binding assay (UV-ligand exchange, ELISA of stabilized MHC complexes). As to conditions: peptide exchange yield on HLA-B*07, UV-ligand exchange. The method in brief:
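Peptide–MHC complexes were made by UV-ligand exchange, in which a UV-cleavable peptide is replaced by the test peptide. Exchange yield was measured by ELISA of stabilized complexes on streptavidin-coated plates, using HRP anti-β2m detection (1 h, 37 °C), TMB substrate and absorbance at 450 nm.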
For the substance “88 (KPSAVKDSIY; listed as Homo sapiens) [compound 88]”, the Peptide exchange entry is “++ (>20% = ++)”.
For “464 (VPFVPRTSV; listed as Homo sapiens) [compound 464]”, the Peptide exchange entry is listed as “+++ (>50 = +++)”.
Turning to “481 (SPARALLLALA; listed as Homo sapiens) [compound 481]”, the Peptide exchange entry was “+++ (>50 = +++)”.
The value for “280 (LPRAFLQSL; listed as Homo sapiens) [compound 280]” was “++++ (>75% = ++++)”; that for “161 (ASKILETSL; listed as Homo sapiens) [compound 161]” was “++ (>20% = ++)”.
On to “482 (QPSLKKIIL; listed as Homo sapiens) [compound 482]”, for which the Peptide exchange result is “++++ (>75% = ++++)”.
As for “327 (GPRTTQSSVL; listed as Homo sapiens) [compound 327]”, the Peptide exchange entry is given as “++++ (>75% = ++++)”.
For “176 (QPLDICHSF; listed as Homo sapiens) [compound 176]”, the Peptide exchange result was “++++ (>75% = ++++)”.
For “169 (RPFSVSSISQL; listed as Homo sapiens) [compound 169]”, the Peptide exchange result is given as “++++ (>75% = ++++)”.
Consider “125 (SPAKQFNIY; listed as Homo sapiens) [compound 125]”, for which the Peptide exchange result is given as “++ (>20% = ++)”.
As for “235 (AQNPAGTAL; listed as Homo sapiens) [compound 235]”, the Peptide exchange entry was “+ (>10% = +)”.
Take “255 (VPSHWMVAL; listed as Homo sapiens) [compound 255]”: the Peptide exchange entry was “++++ (>75% = ++++)”.
On to “448 (TVYGEPRKL; listed as Homo sapiens) [compound 448]”, for which the Peptide exchange result is recorded as “++ (>20% = ++)”.
As for “122 (KPRTPFTTAQLL; listed as Homo sapiens) [compound 122]”, the Peptide exchange result was “++++ (>75% = ++++)”.
For the substance “177 (VWEPQGSSRSL; listed as Homo sapiens) [compound 177]”, the Peptide exchange result is reported as “+++ (>50 = +++)”.
In the case of “158 (SVPVATVEL; listed as Homo sapiens) [compound 158]”, the Peptide exchange result is listed as “++ (>20% = ++)”.
Turning to “102 (MAGPAIHTAPM; listed as Homo sapiens) [compound 102]”, the Peptide exchange entry is reported as “++ (>20% = ++)”.
Take “41 (MPAGGGPRSL; listed as Homo sapiens) [compound 41]”: the Peptide exchange entry is “++++ (>75% = ++++)”.
For the substance “170 (APEGKRLGF; listed as Homo sapiens) [compound 170]”, the Peptide exchange entry is on record as “++++ (>75% = ++++)”.
As for “306 (RPFPLALL; listed as Homo sapiens) [compound 306]”, the Peptide exchange result is “+++ (>50 = +++)”.
“382 (RPGPQRTTSV; listed as Homo sapiens) [compound 382]”: the Peptide exchange entry was “++++ (>75% = ++++)”.
Under “311 (APRLALDPDAL; listed as Homo sapiens) [compound 311]” stands “++++ (>75% = ++++)”; under “87 (APVGGNVTSSF; listed as Homo sapiens) [compound 87]”, “+++ (>50 = +++)”.
As for “307 (RPHQKGWLSI; listed as Homo sapiens) [compound 307]”, the Peptide exchange result is listed as “+++ (>50 = +++)”.
Consider “31 (RPGPSDPAA; listed as Homo sapiens) [compound 31]”, for which the Peptide exchange entry was “+++ (>50 = +++)”.
Take “470 (RPNGEVKSEL; listed as Homo sapiens) [compound 470]”: the Peptide exchange result is on record as “++++ (>75% = ++++)”.
On to “242 (IPETASVVAI; listed as Homo sapiens) [compound 242]”, for which the Peptide exchange result is “+++ (>50 = +++)”.
On to “478 (APKFISPASQL; listed as Homo sapiens) [compound 478]”, for which the Peptide exchange result is “++++ (>75% = ++++)”.
Turning to “455 (FPVQATIDF; listed as Homo sapiens) [compound 455]”, the Peptide exchange result was “++++ (>75% = ++++)”.
With “109 (LPRALMRST; listed as Homo sapiens) [compound 109]”, the Peptide exchange result is reported as “+++ (>50 = +++)”.
For “462 (MPLLADVRL; listed as Homo sapiens) [compound 462]”, the Peptide exchange entry is “++++ (>75% = ++++)”.
Under “321 (QPQQPGFFL; listed as Homo sapiens) [compound 321]” stands “+++ (>50 = +++)”; under “486 (TPTRPLPSA; listed as Homo sapiens) [compound 486]”, “++ (>20% = ++)”; under “219 (VPHTGRYTCL; listed as Homo sapiens) [compound 219]”, “+++ (>50 = +++)”.
Under “325 (SPRSNPVRL; listed as Homo sapiens) [compound 325]” stands “++++ (>75% = ++++)”; under “250 (APAAPAAVPS; listed as Homo sapiens) [compound 250]”, “++ (>20% = ++)”.
The value for “202 (SPSREASAL; listed as Homo sapiens) [compound 202]” was “+++ (>50 = +++)”; that for “7 (RPSQLAPATL; listed as Homo sapiens) [compound 7]” was “+++ (>50 = +++)”.
Consider “466 (SPMEAILVSRL; listed as Homo sapiens) [compound 466]”, for which the Peptide exchange entry was “++++ (>75% = ++++)”.
Consider “360 (SPASRSISLL; listed as Homo sapiens) [compound 360]”, for which the Peptide exchange entry is recorded as “++++ (>75% = ++++)”.
Regarding “193 (LPALKEEAF; listed as Homo sapiens) [compound 193]”, the Peptide exchange entry is “++++ (>75% = ++++)”.
In the case of “174 (IPVTSSVTL; listed as Homo sapiens) [compound 174]”, the Peptide exchange entry is “++++ (>75% = ++++)”.
Take “351 (SPYADIIPSA; listed as Homo sapiens) [compound 351]”: the Peptide exchange result was “+++ (>50 = +++)”.
Under “292 (LPMTHRLQL; listed as Homo sapiens) [compound 292]” stands “+++ (>50 = +++)”; under “318 (TPISNTGVL; listed as Homo sapiens) [compound 318]”, “++++ (>75% = ++++)”.
With “229 (FPNAGPRHLL; listed as Homo sapiens) [compound 229]”, the Peptide exchange entry was “+++ (>50 = +++)”.
As for “258 (SVIGPNSRL; listed as Homo sapiens) [compound 258]”, the Peptide exchange entry is “++ (>20% = ++)”.
With “29 (APLRVHITSL; listed as Homo sapiens) [compound 29]”, the Peptide exchange result is listed as “++++ (>75% = ++++)”.
Take “78 (HPSQESPTL; listed as Homo sapiens) [compound 78]”: the Peptide exchange result is reported as “+++ (>50 = +++)”.
Take “43 (APTPRPKVL; listed as Homo sapiens) [compound 43]”: the Peptide exchange result is listed as “++++ (>75% = ++++)”.
The value for “335 (VPPQNPRPSL; listed as Homo sapiens) [compound 335]” was “+++ (>50 = +++)”.
On to “15 (KPGFNISIL; listed as Homo sapiens) [compound 15]”, for which the Peptide exchange result is given as “++++ (>75% = ++++)”.
Turning to “198 (LPSPAHAFRAL; listed as Homo sapiens) [compound 198]”, the Peptide exchange result is reported as “+++ (>50 = +++)”.
For the substance “98 (FPCSALLACF; listed as Homo sapiens) [compound 98]”, the Peptide exchange result is “++++ (>75% = ++++)”.
“479 (APHAGGALL; listed as Homo sapiens) [compound 479]”: the Peptide exchange entry is listed as “++++ (>75% = ++++)”.
In the case of “289 (LPYEKVSRL; listed as Homo sapiens) [compound 289]”, the Peptide exchange entry was “+++ (>50 = +++)”.
Consider “291 (SPSKSLEM; listed as Homo sapiens) [compound 291]”, for which the Peptide exchange entry is recorded as “+++ (>50 = +++)”.
The value for “99 (MPVSAFTVI; listed as Homo sapiens) [compound 99]” was “++++ (>75% = ++++)”; that for “75 (HVRPQTNCI; listed as Homo sapiens) [compound 75]” was “+++ (>50 = +++)”.
With “469 (LPLDTRTSI; listed as Homo sapiens) [compound 469]”, the Peptide exchange entry was “++++ (>75% = ++++)”.
Under “178 (VPYYPRANL; listed as Homo sapiens) [compound 178]” stands “+++ (>50 = +++)”; under “284 (RPSAPRGPP; listed as Homo sapiens) [compound 284]”, “++++ (>75% = ++++)”; under “146 (SPTRGSEF; listed as Homo sapiens) [compound 146]”, “++++ (>75% = ++++)”.
Under “378 (SPRQPRLDF; listed as Homo sapiens) [compound 378]” stands “++++ (>75% = ++++)”; under “252 (QPENSLEGISL; listed as Homo sapiens) [compound 252]”, “+++ (>50 = +++)”.
For the substance “256 (SPVPSHWMVAL; listed as Homo sapiens) [compound 256]”, the Peptide exchange result was “++++ (>75% = ++++)”.
On to “376 (FPQVGRTAL; listed as Homo sapiens) [compound 376]”, for which the Peptide exchange entry is reported as “++++ (>75% = ++++)”.
“310 (SPGWAQTQL; listed as Homo sapiens) [compound 310]”: the Peptide exchange result is listed as “++++ (>75% = ++++)”.
Regarding “299 (SPFSGGPVSF; listed as Homo sapiens) [compound 299]”, the Peptide exchange entry was “++++ (>75% = ++++)”.
With “316 (NPREPEKSL; listed as Homo sapiens) [compound 316]”, the Peptide exchange result was “+++ (>50 = +++)”.
For “319 (RPLDTFRVL; listed as Homo sapiens) [compound 319]”, the Peptide exchange entry was “++++ (>75% = ++++)”.
Take “298 (RVLLRWISL; listed as Homo sapiens) [compound 298]”: the Peptide exchange result is “+++ (>50 = +++)”.
The value for “471 (LPLLAGTLLL; listed as Homo sapiens) [compound 471]” was “++ (>20% = ++)”.
